Positions count from the first letter of the chain named. Names may count otherwise. “And” between values parts separate entries of the source, which are not always exact repeats. Equal entries are not always repeated. Where two headings read alike, the source gives them in different places. No end group written: not given here.
B1: ClpS*^F (ClpS C73V; C101S; E96C labelled with fluorescein) (natural protein, E. coli, UniProt P0A8Q6 1-106, looked up)
chain: MGKTNDWLDFDQLAEEKVRDALKPPSMYKVILVNDDYTPMEFVIDVLQKFFSYDVERATQLMLAVHYQGKAIVGVFTAEVAETKVAMVNKYARENCHPLLSTLEKA
modifications: fluorescein maleimide on the single cysteine
B2: ^H66AClpS*^F (natural protein, E. coli, UniProt P0A8Q6 1-106, looked up)
chain: B1 chain with H66A
modifications: fluorescein maleimide on the single cysteine
B3: ^H66AClpS*^F bound to the N-end-rule peptide LLYVQRDSKEC (complex, E. coli)
chain: B1 chain with H66A
peptide: LLYVQRDSKEC
modifications: fluorescein maleimide on the single cysteine
B4: ClpS*^F bound to the N-end-rule peptide LLYVQRDSKEC (complex, E. coli)
chain: B1 chain
peptide: LLYVQRDSKEC
modifications: fluorescein maleimide on the single cysteine
B5: fluorescent N-end-rule peptide LLYVQRDSKEC-fl (peptide)
peptide: LLYVQRDSKEC(fluorescein maleimide)
B6: ClpA6 (hexameric ClpA unfoldase, stabilised by ATPγS) (enzyme)
chain: MLNQELELSLNMAFARAREHRHEFMTVEHLLLALLSNPSAREALEACSVDLVALRQELEAFIEQTTPVLPASEEERDTQPTLSFQRVLQRAVFHVQSSGRNEVTGANVLVAIFSEQESQAAYLLRKHEVSRLDVVNFISHGTRKDEPTQSSDPGSQPNSEEQAGGEERMENFTTNLNQLARVGGIDPLIGREKELERAIQVLCRRRKNNPLLVGESGVGKTAIAEGLAWRIVQGDVPEVMADCTIYSLDIGSLLAGTKYRGDFEKRFKALLKQLEQDTNSILFIDEIHTIIGAGAASGGQVDAANLIKPLLSSGKIRVIGSTTYQEFSNIFEKDRALARRFQKIDITEPSIEETVQIINGLKPKYEAHHDVRYTAKAVRAAVELAVKYINDRHLPDKAIDVIDEAGARARLMPVSKRKKTVNVADIESVVARIARIPEKSVSQSDRDTLKNLGDRLKMLVFGQDKAIEALTEAIKMARAGLGHEHKPVGSFLFAGPTGVGKTEVTVQLSKALGIELLRFDMSEYMERHTVSRLIGAPPGYVGFDQGGLLTDAVIKHPHAVLLLDEIEKAHPDVFNILLQVMDNGTLTDNNGRKADFRNVVLVMTTNAGVRETERKSIGLIHQDNSTDAMEEIKKIFTPEFRNRLDNIIWFDHLSTDVIHQVVDKFIVELQVQLDQKGVSLEVSQEARNWLAEKGYDRAMGARPMARVIQDNLKKPLANELLFGSLVDGGQVTVALDKEKNELTYGFQSAQKHKAEAAH
B7: *V18 ClpS with ClpA6 (complex, E. coli)
chain 1: B6 chain
chain 2: MVRDALKPPSMYKVILVNDDYTPMEFVIDVLQKFFSYDVERATQLMLAVHYQGKAICGVFTAEVAETKVAMVNKYARENEHPLLCTLEKA
B8: *L13 ClpS with ClpA6 (complex, E. coli)
chain 1: B6 chain
chain 2: MLAEEKVRDALKPPSMYKVILVNDDYTPMEFVIDVLQKFFSYDVERATQLMLAVHYQGKAICGVFTAEVAETKVAMVNKYARENEHPLLCTLEKA
B9: *A14 ClpS with ClpA6 (complex, E. coli)
chain 1: B6 chain
chain 2: MAEEKVRDALKPPSMYKVILVNDDYTPMEFVIDVLQKFFSYDVERATQLMLAVHYQGKAICGVFTAEVAETKVAMVNKYARENEHPLLCTLEKA

Tests used:
[1] = target: ClpA6 (Escherichia coli, UniProt P0A8Q6+P0ABH9, C101S/C73V/E96C); format: binding, E. coli; settings: for ClpA6 bound ClpS*^F more tightly, fold: excess peptide, compared with […] peptide or absence of ligand; for Kapp of ClpA6 for ClpS*^F in presence of peptide: fluorescence anisotropy, 200 nM ClpS*^F, 20 μM peptide, ATPγS, Fig. 3A
[2] = target: fluorescent N-end-rule peptide …-fl; test: fluorescence polarisation
[3] = target: T1, ClpA6 (hexameric ClpA unfoldase, stabilised by ATPγS) (E. coli, UniProt P0ABH9 1-758); test: fluorescence polarisation
T1 sequence (looked up): B6 chain

[4] = target: T1, ClpA6 (hexameric ClpA unfoldase, …); test: fluorescence polarisation; remark: listed apart in the source
[5] = target: T1, ClpA6 (hexameric ClpA unfoldase, …); test: fluorescence polarisation; remark: listed apart in the source
[6] = target: T1, ClpA6 (hexameric ClpA unfoldase, …); test: fluorescence polarisation; remark: listed apart in the source
[7] = target: T2, ClpS^core (E. coli ClpS residues 26-106) (E. coli, UniProt P0A8Q6 26-106); test: fluorescence polarisation
T2 sequence (looked up): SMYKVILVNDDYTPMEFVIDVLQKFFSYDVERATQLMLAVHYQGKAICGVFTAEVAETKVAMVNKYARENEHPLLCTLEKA

[8] = target: T3, ClpS adaptor (intact, wild type) (E. coli, UniProt P0A8Q6 1-106); test: fluorescence polarisation
T3 sequence (looked up): B1 chain with V73C, C96E, S101C

[9] = target: T4, ClpS-ClpA6 complex (E. coli, UniProt P0ABH9 1-758; P0A8Q6 1-106); test: fluorescence polarisation
T4 sequence (looked up) 1: B6 chain
T4 sequence (looked up) 2: B1 chain with V73C, C96E, S101C

[10] = target: T5, D20 ClpS with ClpA6 (E. coli, UniProt P0ABH9 1-758; P0A8Q6 20-106); test: fluorescence polarisation
T5 sequence (looked up) 1: B6 chain
T5 sequence (looked up) 2: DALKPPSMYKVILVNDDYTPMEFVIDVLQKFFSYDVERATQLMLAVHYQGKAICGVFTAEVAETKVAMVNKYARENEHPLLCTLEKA

[11] = target: T6, L22 ClpS with ClpA6 (E. coli, UniProt P0ABH9 1-758; P0A8Q6 22-106); test: fluorescence polarisation
T6 sequence (looked up) 1: B6 chain
T6 sequence (looked up) 2: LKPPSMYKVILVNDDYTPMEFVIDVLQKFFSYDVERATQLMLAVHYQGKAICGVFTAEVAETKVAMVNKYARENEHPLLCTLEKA

[12] = target: ClpS*^F variant with NTE deletion (E. coli); test: fluorescence polarisation
[13] = target: B5; test: fluorescence polarisation
[14] = tested on: ClpAP; test: ClpAPS degradation of YLFVQELA-GFP; format: biochemical, E. coli; settings: for K2 (unimolecular engagement step, global fit): YLFVQELA-GFP degradation, Vmax = Etotal•kdeg/(1+K2), KM = K1•K2/(1+K2); for K2 (unimolecular engagement step, global fit) / steady-state degradation kinetics, in words / reduction in Vmax compared to ClpS, fold: Fig. 4B; for steady-state degradation kinetics, in words / reduction in Vmax compared to ClpS, fold: 100 nM ClpA6, 200 nM ClpP14; for steady-state degradation kinetics, in words: 600 nM ClpS or variants; for reduction in Vmax compared to ClpS, fold: 600 nM ClpS variant

With Phe-Val [FV] the “ClpA6 bound ClpS*^F more tightly, fold” value [1] was “at least 9 fold” and the “Kapp of ClpA6 for ClpS*^F in presence of peptide” value [1] was under 20 nM.

MLYVQRDSKEC was tested, and the “Kapp of ClpA6 for ClpS*^F in presence of peptide” value [1] was ~ 180 nM.

“ClpS in complex with the ClpA N domain (from UniProt P0A8Q6 1-106)” showed a Kd [2] of 3000 nM.

With Trp-CONH2 the “ClpA6 bound ClpS*^F more tightly, fold” value [1] was “at least 9 fold”.

B1 showed a Kd [3] of about 180 nM, a Kd [4] of under 20 nM and a Kd [5] of 200 ± 6 nM.

Work on B2 yielded a Kd [5] of 345 ± 3 nM.

For B3, the Kd [6] was 178 ± 4 nM.

For B4, the Kd [6] was < 20 nM and 20 nM.

B5 gave a Kd [7] of about 3000 nM, a Kd [8] of about 3000 nM and a Kd [9] of 43 nM. The Kd [10] was 130 nM and the Kd [11] was 290 nM.

For B6, the fold reduction of affinity against ClpS*^F [12] was 10 fold.

B7 was tested, and the Kd [13] was 83 nM.

B8 was tested, and the “K2 (unimolecular engagement step, global fit)” value [14] was 0.74, the “steady-state degradation kinetics, in words” value ([14]; YLFVQELA-GFP) was “roughly similar steady-state degradation kinetics” and the “reduction in Vmax compared to ClpS, fold” value ([14]; YLFVQELA-GFP) was 1.3 fold. For the same molecule, the “delivery of N-end-rule substrate for ClpAP degradation” value ([14]; YLFVQELA-GFP, ClpS variants, in words) was “mediated efficient substrate degradation” and the Kd [13] was 100 nM.

With B9 the “K2 (unimolecular engagement step, global fit)” value [14] was 9.2, the “steady-state degradation kinetics, in words” value ([14]; YLFVQELA-GFP) was “substantial decrease in Vmax” and the “reduction in Vmax compared to ClpS, fold” value ([14]; YLFVQELA-GFP) was 7.5 fold. It also gave a Kd [13] of 130 nM.

Reference: publication PMC3168947 (Molecular cell, 2011)
